In PMC4334984, “In Vitro Selection of a Single-Stranded DNA Molecular Recognition Element against Clostridium difficile Toxin B and Sensitive Detection in Human Fecal Matter” one finds Kd data, which are given here for one molecule.

The series deals with Toxin B (Clostridium difficile, UniProt P18177 1-2366). Put plainly: SPR (single cycle kinetics, 1:1 model); […] (pH not stated); […]; SPR temperature not stated. The settings on record: protein: commercial.
Sequence of Toxin B (P18177 whole entry): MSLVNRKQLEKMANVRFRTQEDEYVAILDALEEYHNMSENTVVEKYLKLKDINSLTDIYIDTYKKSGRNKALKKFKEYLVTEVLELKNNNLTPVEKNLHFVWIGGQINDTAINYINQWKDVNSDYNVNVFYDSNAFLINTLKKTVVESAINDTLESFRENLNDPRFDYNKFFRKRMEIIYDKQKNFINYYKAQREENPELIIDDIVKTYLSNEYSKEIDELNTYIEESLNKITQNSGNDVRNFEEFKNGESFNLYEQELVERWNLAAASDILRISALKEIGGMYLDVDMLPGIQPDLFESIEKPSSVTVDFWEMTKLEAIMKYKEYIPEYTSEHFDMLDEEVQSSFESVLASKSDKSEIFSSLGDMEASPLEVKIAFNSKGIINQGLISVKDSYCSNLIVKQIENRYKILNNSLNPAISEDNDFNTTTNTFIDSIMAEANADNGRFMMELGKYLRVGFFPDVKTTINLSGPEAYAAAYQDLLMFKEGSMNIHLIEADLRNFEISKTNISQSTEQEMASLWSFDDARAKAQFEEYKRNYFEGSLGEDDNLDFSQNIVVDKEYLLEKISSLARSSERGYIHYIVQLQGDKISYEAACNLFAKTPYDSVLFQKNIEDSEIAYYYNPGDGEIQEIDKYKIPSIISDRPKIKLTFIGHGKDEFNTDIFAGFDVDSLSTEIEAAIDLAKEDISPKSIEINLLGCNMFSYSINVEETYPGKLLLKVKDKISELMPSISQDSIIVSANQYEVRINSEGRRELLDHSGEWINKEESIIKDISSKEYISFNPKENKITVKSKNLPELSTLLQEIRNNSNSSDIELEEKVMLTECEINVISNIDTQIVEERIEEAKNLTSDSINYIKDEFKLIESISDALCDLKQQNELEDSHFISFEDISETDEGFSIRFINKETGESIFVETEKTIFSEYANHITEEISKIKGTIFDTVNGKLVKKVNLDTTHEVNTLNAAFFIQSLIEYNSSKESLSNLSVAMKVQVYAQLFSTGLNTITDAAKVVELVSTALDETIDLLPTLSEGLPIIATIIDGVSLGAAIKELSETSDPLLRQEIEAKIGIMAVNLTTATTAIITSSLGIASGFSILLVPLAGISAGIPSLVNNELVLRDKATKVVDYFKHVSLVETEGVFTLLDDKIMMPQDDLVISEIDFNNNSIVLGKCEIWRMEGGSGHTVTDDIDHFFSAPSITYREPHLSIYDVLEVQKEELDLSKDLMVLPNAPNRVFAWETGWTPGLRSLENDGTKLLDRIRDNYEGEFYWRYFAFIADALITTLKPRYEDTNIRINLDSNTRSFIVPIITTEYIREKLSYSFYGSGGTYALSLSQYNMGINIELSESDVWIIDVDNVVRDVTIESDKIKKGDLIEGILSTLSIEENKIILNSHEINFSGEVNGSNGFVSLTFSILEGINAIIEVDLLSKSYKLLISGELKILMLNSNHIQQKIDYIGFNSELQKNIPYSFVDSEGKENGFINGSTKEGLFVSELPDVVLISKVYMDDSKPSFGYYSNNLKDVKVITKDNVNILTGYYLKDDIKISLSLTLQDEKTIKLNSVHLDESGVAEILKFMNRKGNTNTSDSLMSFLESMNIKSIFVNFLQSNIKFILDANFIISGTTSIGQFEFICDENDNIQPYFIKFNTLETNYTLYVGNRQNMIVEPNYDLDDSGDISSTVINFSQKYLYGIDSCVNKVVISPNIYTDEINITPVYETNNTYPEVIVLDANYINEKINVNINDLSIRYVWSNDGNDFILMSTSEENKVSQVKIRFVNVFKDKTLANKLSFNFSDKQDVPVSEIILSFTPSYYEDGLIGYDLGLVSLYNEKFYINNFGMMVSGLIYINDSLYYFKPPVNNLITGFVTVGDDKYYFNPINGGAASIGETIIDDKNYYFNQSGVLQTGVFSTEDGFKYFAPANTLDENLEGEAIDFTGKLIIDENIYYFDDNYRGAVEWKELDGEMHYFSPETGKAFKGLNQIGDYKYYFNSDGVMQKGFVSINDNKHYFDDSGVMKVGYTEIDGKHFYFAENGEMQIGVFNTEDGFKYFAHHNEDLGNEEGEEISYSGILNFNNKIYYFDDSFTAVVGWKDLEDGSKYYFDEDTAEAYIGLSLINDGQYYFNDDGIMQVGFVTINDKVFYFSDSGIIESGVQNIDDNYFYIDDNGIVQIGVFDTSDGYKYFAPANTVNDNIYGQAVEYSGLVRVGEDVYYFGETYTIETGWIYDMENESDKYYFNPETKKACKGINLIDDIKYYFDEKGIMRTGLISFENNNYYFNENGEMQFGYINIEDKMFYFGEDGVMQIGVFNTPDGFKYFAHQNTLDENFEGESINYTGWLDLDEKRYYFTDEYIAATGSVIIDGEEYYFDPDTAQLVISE

B1: R12.69 (SPR) (ssDNA)
DNA: TGTACCGTCTGAGCGATTCGTACCCTCGCTAATGCTGCTTGATGTGTGGCCTCGAATAGCCAGTCAGTGTTAAGGAGTGC
modifications: 5'-amino-C6
Consider B1, for which the dissociation constant Kd (usually the concentration at which binding is half-saturated) worked out at 47.3 ± 13.7 nM.
